Measured values reported in patent publication US10919943B2, “Mutant proteins enabling agrochemical control of plant gene expression” (The Regents of the University of California, priority 2016, dated 2021).
Residue numbers refer to the chain shown, from its start. Names and notes keep the numbering of the source.

B1: G86A: PYR1 mutant (protein, UniProt O49686 1-191, looked up, variant G86A)
Abscisic acid receptor PYR1: MPSELTPEERSELKNSIAEFHTYQLDPGSCSSLHAQRIHAPPELVWSIVRRFDKPQTYKHFIKSCSVEQNFEMRVGCTRDVIVISALPANTSTERLDILDDERRVTGFSIIGGEHRLTNYKSVTTVHRFEKENRIWTVVLESYVVDMPEGNSEDDTRMFADTVVKLNLQKLATVAEAMARNSGDGSGSQVT
B2: L87D: PYR1 mutant (protein, UniProt O49686 1-191, looked up, variant L87D)
Abscisic acid receptor PYR1: B1 Abscisic acid receptor PYR1 with A86G, L87D
B3: G86M: PYR1 mutant (protein, UniProt O49686 1-191, looked up, variant G86M)
Abscisic acid receptor PYR1: B1 Abscisic acid receptor PYR1 with A86M
B4: G86V: PYR1 mutant (protein, UniProt O49686 1-191, looked up, variant G86V)
Abscisic acid receptor PYR1: B1 Abscisic acid receptor PYR1 with A86V
B5: L87W: PYR1 mutant (protein, UniProt O49686 1-191, looked up, variant L87W)
Abscisic acid receptor PYR1: B1 Abscisic acid receptor PYR1 with A86G, L87W
B6: G86T: PYR1 mutant (protein, UniProt O49686 1-191, looked up, variant G86T)
Abscisic acid receptor PYR1: B1 Abscisic acid receptor PYR1 with A86T
B7: L87H: PYR1 mutant (protein, UniProt O49686 1-191, looked up, variant L87H)
Abscisic acid receptor PYR1: B1 Abscisic acid receptor PYR1 with A86G, L87H
B8: L87K: PYR1 mutant (protein, UniProt O49686 1-191, looked up, variant L87K)
Abscisic acid receptor PYR1: B1 Abscisic acid receptor PYR1 with A86G, L87K
B9: G86E: PYR1 mutant (protein, UniProt O49686 1-191, looked up, variant G86E)
Abscisic acid receptor PYR1: B1 Abscisic acid receptor PYR1 with A86E
B10: G86H: PYR1 mutant (protein, UniProt O49686 1-191, looked up, variant G86H)
Abscisic acid receptor PYR1: B1 Abscisic acid receptor PYR1 with A86H
B11: L87Y: PYR1 mutant (protein, UniProt O49686 1-191, looked up, variant L87Y)
Abscisic acid receptor PYR1: B1 Abscisic acid receptor PYR1 with A86G, L87Y
B12: G86F: PYR1 mutant (protein, UniProt O49686 1-191, looked up, variant G86F)
Abscisic acid receptor PYR1: B1 Abscisic acid receptor PYR1 with A86F
B13: G86Q: PYR1 mutant (protein, UniProt O49686 1-191, looked up, variant G86Q)
Abscisic acid receptor PYR1: B1 Abscisic acid receptor PYR1 with A86Q
B14: L87A: PYR1 mutant (protein, UniProt O49686 1-191, looked up, variant L87A)
Abscisic acid receptor PYR1: B1 Abscisic acid receptor PYR1 with A86G, L87A
B15: G86W: PYR1 mutant (protein, UniProt O49686 1-191, looked up, variant G86W)
Abscisic acid receptor PYR1: B1 Abscisic acid receptor PYR1 with A86W
B16: L87S: PYR1 mutant (protein, UniProt O49686 1-191, looked up, variant L87S)
Abscisic acid receptor PYR1: B1 Abscisic acid receptor PYR1 with A86G, L87S
B17: L87Q: PYR1 mutant (protein, UniProt O49686 1-191, looked up, variant L87Q)
Abscisic acid receptor PYR1: B1 Abscisic acid receptor PYR1 with A86G, L87Q
B18: G86P: PYR1 mutant (protein, UniProt O49686 1-191, looked up, variant G86P)
Abscisic acid receptor PYR1: B1 Abscisic acid receptor PYR1 with A86P
B19: G86N: PYR1 mutant (protein, UniProt O49686 1-191, looked up, variant G86N)
Abscisic acid receptor PYR1: B1 Abscisic acid receptor PYR1 with A86N
B20: G86K: PYR1 mutant (protein, UniProt O49686 1-191, looked up, variant G86K)
Abscisic acid receptor PYR1: B1 Abscisic acid receptor PYR1 with A86K
B21: G86C: PYR1 mutant (protein, UniProt O49686 1-191, looked up, variant G86C)
Abscisic acid receptor PYR1: B1 Abscisic acid receptor PYR1 with A86C
B22: G86S: PYR1 mutant (protein, UniProt O49686 1-191, looked up, variant G86S)
Abscisic acid receptor PYR1: B1 Abscisic acid receptor PYR1 with A86S
B23: L87G: PYR1 mutant (protein, UniProt O49686 1-191, looked up, variant L87G)
Abscisic acid receptor PYR1: B1 Abscisic acid receptor PYR1 with A86G, L87G
B24: L87E: PYR1 mutant (protein, UniProt O49686 1-191, looked up, variant L87E)
Abscisic acid receptor PYR1: B1 Abscisic acid receptor PYR1 with A86G, L87E
B25: L87R: PYR1 mutant (protein, UniProt O49686 1-191, looked up, variant L87R)
Abscisic acid receptor PYR1: B1 Abscisic acid receptor PYR1 with A86G, L87R
B26: L87N: PYR1 mutant (protein, UniProt O49686 1-191, looked up, variant L87N)
Abscisic acid receptor PYR1: B1 Abscisic acid receptor PYR1 with A86G, L87N
B27: G86I: PYR1 mutant (protein, UniProt O49686 1-191, looked up, variant G86I)
Abscisic acid receptor PYR1: B1 Abscisic acid receptor PYR1 with A86I
B28: G86R: PYR1 mutant (protein, UniProt O49686 1-191, looked up, variant G86R)
Abscisic acid receptor PYR1: B1 Abscisic acid receptor PYR1 with A86R
B29: G86Y: PYR1 mutant (protein, UniProt O49686 1-191, looked up, variant G86Y)
Abscisic acid receptor PYR1: B1 Abscisic acid receptor PYR1 with A86Y
B30: G86D: PYR1 mutant (protein, UniProt O49686 1-191, looked up, variant G86D)
Abscisic acid receptor PYR1: B1 Abscisic acid receptor PYR1 with A86D
B31: L87T: PYR1 mutant (protein, UniProt O49686 1-191, looked up, variant L87T)
Abscisic acid receptor PYR1: B1 Abscisic acid receptor PYR1 with A86G, L87T
B32: G86L: PYR1 mutant (protein, UniProt O49686 1-191, looked up, variant G86L)
Abscisic acid receptor PYR1: B1 Abscisic acid receptor PYR1 with A86L
B33: L87C: PYR1 mutant (protein, UniProt O49686 1-191, looked up, variant L87C)
Abscisic acid receptor PYR1: B1 Abscisic acid receptor PYR1 with A86G, L87C

Tested on: HAB1
Test: Yeast two hybrid of pBD-PYR1 site saturation mutants with pACT-HAB1 on 10 μM ABA, β-galactosidase staining
Assay type: cell-based, Arabidopsis
Parameters: key: x: Mutations in PYR1 that disrupt ABA-induced binding to PYR1 to HAB1
Conditions: S. cerevisiae Y190, 10 μM ABA; dead = lack of visible staining in comparison to wild type control
From the text: To systematically identify mutations in PYR1 that disrupt its binding to HAB1, we utilized a collection of saturating mutations that contain all possible single amino acid substitutions in 24 conserved interface residues involved in binding HAB1, which was previously constructed for the purpose of engineering constitutively active ABA receptor variants (Mosquna et al., 2011). The interface residues previously mutagenized in this collection are the following: H60, F61, I62, K63, I84, S85, G86, L87, P88, A89, H115, R116, L117, P148, G150, N151, D154, D155, T156, M158, F159, T162, L166, K170. This set was made by mutagenizing a pBD-PYR1 template that encodes a GAL4-DNA binding domain fusion to PYR1, which can be used to assess receptor-HAB1 binding in S. cerevisiae strains co-transformed with pACT-HAB1, which expresses a GAL4 activation domain fusion to HAB1. Mutant pBD-PYR1 clones from the collection are maintained in S. cerevisiae strain Y190 co-transformed with pACT-HAB1. The test strains were spotted onto agar plates containing synthetic dextrose dropout media lacking leucine and tryptophan [SD (-Leu, -Trp)] medium supplemented with 10 μM ABA. After incubating the test plates at 30° C. for two days, colonies were chloroform lysed and stained to reveal […] expression levels and “dead” mutants were defined by lack of visible staining in comparison to a wild type control. This effort defined 237 mutations that disrupt ABA-induced binding of PYR1 to HAB1 (Table 1). Premade yeast drop out supplements (Clontech) were utilized in this and other examples for media preparation, amino acids and other standard chemicals were purchased from Sigma-Aldrich (USA). The naturally occurring (+)-ABA isomer was used in all experiments and purchased from Biosynth Ag (Switzerland).

Row | Molecule | Mutations in PYR1 that disrupt ABA-induced binding to PYR1 to HAB1
1 | B1 | x
2 | B2 | x
3 | B3 | x
4 | B4 | x
5 | B5 | x
6 | B6 | x
7 | B7 | x
8 | B8 | x
9 | B9 | x
10 | B10 | x
11 | B11 | x
12 | B12 | x
13 | B13 | x
14 | B14 | x
15 | B15 | x
16 | B16 | x
17 | B17 | x

Row | Molecule | Mutations in PYR1 that disrupt ABA-induced binding to PYR1 to HAB1
18 | B18 | x
19 | B19 | x
20 | B20 | x
21 | B21 | x
22 | B22 | x
23 | B23 | x
24 | B24 | x
25 | B25 | x
26 | B26 | x
27 | B27 | x
28 | B28 | x
29 | B29 | x
30 | B30 | x
31 | B31 | x
32 | B32 | x
33 | B33 | x
